In article doi:10.1101/2024.03.07.583884 one finds reduction of Pus8AA +LMY➔A-Cherry fluorescence, DPF assay and loss of ACE2 fluorescence, DPF assay data, which are given here for one substance.

For experiment [1], the target named is Pus8AA+LMY➔A-ACE2-Cherry (human) (UniProt Q9BYF1).
Experiment [2] has as its target mACE 1-357 ACE2-Cherry hybrid (mouse | human) (UniProt Q8R0I0).

Consider “OM.BA.1-RBD-β2AR-GFP (from UniProt P0DTC2 333-529) (domain or fragment)”, for which the reduction of Pus8AA +LMY➔A-Cherry fluorescence, DPF assay in experiment [1] worked out at 17.2%. In experiment [2], this substance had a loss of ACE2 fluorescence, DPF assay of 24.8%.
